Reference: paper PMC6138654

Biological target: αβ-tubulin (tubulin dimer; as free tubulin, Tau-induced microtubules or Taxol-stabilized microtubules) (lamb (purified from lamb brains))

Chain of Tau F4 fragment labeled with MTSL (F4^MTSL) (P10636 525-641): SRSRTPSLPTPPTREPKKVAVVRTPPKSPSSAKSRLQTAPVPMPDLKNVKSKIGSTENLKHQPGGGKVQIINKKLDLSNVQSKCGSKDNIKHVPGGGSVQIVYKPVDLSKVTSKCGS

| Substance | k of MTSL label release (thiol-disulfide exchange) by EPR, h(−1)/h(0) against time; Tau-MTs (induced), 10 µM labeled protein, 1:2 with tubulin, 37 °C [min⁻¹] | k of MTSL label release (thiol-disulfide exchange) by EPR, h(−1)/h(0) against time; Induced-MTs, 10 µM labeled protein, 1:2 with tubulin, 37 °C [min⁻¹] | k of MTSL label release (thiol-disulfide exchange) by EPR, h(−1)/h(0) against time; Taxol-MTs, 10 µM labeled protein, 1:2 with tubulin, 37 °C [min⁻¹] |
| --- | --- | --- | --- |
| Tau F4 fragment C322S mutant labeled with MTSL on C291 (C291^MTSL) (from UniProt P10636-8 208-324) (domain or fragment) | 0.127 |  |  |
| Tau F4 fragment C291S mutant labeled with MTSL on C322 (C322^MTSL) (from UniProt P10636-8 208-324) (domain or fragment) | 0.077 |  |  |
| Tau F4 fragment labeled with MTSL (F4^MTSL) (from UniProt P10636-8 208-324) (domain or fragment) |  | 0.217 | 0.025 |
